Results taken from patent US20200048348A1 (TENEOBIO, published 2020).

Target: human CD3 (human, UniProt P07766 23-207; P04234 22-171)
Assay: flow cytometry, parental monospecific anti-CD3 on Jurkat cells; antibody concentration not given

Sequence of human CD3 (P07766 23-207, one chain of several): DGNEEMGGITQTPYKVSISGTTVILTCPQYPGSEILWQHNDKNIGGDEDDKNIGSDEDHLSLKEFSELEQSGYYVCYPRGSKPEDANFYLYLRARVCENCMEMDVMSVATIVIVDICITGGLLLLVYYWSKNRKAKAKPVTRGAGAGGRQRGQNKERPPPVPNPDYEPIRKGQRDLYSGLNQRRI

B1: SEQ ID NO 10 (antibody, IgG1, V domains shown)
VH: EVQLVESGGGLVQPGRSLRLSCAASGFTFDNYAMHWVRQAPGKGLEWVSGISWNSGSIGYADSVKGRFTISRDNAKNSLYLQMNSLRAEDTALYYCAKDSRGYGDYSRGGAYWGQGTLVTVSS
VL: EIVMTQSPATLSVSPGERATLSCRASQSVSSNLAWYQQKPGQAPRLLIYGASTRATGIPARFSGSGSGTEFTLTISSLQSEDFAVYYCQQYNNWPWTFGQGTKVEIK
notes: also called FlicAb
  Jurkat cell bind (MFI): 30.5 MFI

B2: SEQ ID NO 6 (antibody, IgG1, V domains shown)
VH: EVQLVESGGGLVQPGRSLRLSCAASGFTFANYAMHWVRQAPGKGLEWVSGISWNSGSIDYADSVKGRFTISRDNAKNSLYLQMNSLRAEDTALYYCAKDSRGYGDYSRGGAYWGQGTLVTVSS
VL: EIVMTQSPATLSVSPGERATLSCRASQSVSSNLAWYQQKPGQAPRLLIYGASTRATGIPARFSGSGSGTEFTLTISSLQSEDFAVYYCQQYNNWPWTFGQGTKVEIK
notes: also called FlicAb
  Jurkat cell bind (MFI): 32.7 MFI

B3: SEQ ID NO 7 (antibody, IgG1, V domains shown)
VH: EVQLVESGGGLVQPGRSLRLSCAASGFTFNNYAMHWVRQAPGKGLEWVSGISWNSGSIGYADSVKGRFTISRDNAKNSLYLQMNSLRGEDTALYYCAKDSRGYGDYSRGGAYWGQGTLVTVSS
VL: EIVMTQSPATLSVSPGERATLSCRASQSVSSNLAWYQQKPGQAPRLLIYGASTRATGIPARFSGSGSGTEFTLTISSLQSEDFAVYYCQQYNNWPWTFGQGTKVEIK
notes: also called FlicAb
  Jurkat cell bind (MFI): 32.4 MFI

B4: SEQ ID NO 13 (antibody, IgG1, V domains shown)
VH: EVQLVESGGGLVQPGRSLRLSCAASGFTFHNYAMHWVRQAPGKGLEWVSGISWNSGSIGYADSVKGRFTISRDNAKNSLYLQMNSLRAEDTALYYCAKDSRGYGDYSLGGAYWGQGTLVTVSS
VL: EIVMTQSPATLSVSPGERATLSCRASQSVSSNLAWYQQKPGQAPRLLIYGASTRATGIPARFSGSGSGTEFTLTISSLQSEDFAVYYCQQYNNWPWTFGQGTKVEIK
notes: also called FlicAb
  Jurkat cell bind (MFI): 21.4 MFI

B5: SEQ ID NO 1 (antibody, IgG1, V domains shown)
VH: EVQLVESGGGLVQPGRSLRLSCAASGFTFDDYAMHWVRQAPGKGLEWVSGISWNSGSIGYADSVKGRFTISRDNAKNSLYLQMNSLRAEDTALYYCAKDSRGYGDYRLGGAYWGQGTLVTVSS
VL: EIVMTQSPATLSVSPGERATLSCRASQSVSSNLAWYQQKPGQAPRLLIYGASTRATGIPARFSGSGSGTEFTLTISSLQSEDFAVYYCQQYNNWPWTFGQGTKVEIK
notes: also called FlicAb
  Jurkat cell bind (MFI): 6.1 MFI
